Laboratory results taken from paper doi:10.1101/093054 (bioRxiv, 2016).
Each block holds one molecule with its values, some of them ahead of it.

Legend:
SPD-5::TagRFP = target: T1, SPD-5::TagRFP (C. elegans, UniProt P91349 1-1198); assay: partitioning into droplets by fluorescence microscopy
T1 sequence (looked up): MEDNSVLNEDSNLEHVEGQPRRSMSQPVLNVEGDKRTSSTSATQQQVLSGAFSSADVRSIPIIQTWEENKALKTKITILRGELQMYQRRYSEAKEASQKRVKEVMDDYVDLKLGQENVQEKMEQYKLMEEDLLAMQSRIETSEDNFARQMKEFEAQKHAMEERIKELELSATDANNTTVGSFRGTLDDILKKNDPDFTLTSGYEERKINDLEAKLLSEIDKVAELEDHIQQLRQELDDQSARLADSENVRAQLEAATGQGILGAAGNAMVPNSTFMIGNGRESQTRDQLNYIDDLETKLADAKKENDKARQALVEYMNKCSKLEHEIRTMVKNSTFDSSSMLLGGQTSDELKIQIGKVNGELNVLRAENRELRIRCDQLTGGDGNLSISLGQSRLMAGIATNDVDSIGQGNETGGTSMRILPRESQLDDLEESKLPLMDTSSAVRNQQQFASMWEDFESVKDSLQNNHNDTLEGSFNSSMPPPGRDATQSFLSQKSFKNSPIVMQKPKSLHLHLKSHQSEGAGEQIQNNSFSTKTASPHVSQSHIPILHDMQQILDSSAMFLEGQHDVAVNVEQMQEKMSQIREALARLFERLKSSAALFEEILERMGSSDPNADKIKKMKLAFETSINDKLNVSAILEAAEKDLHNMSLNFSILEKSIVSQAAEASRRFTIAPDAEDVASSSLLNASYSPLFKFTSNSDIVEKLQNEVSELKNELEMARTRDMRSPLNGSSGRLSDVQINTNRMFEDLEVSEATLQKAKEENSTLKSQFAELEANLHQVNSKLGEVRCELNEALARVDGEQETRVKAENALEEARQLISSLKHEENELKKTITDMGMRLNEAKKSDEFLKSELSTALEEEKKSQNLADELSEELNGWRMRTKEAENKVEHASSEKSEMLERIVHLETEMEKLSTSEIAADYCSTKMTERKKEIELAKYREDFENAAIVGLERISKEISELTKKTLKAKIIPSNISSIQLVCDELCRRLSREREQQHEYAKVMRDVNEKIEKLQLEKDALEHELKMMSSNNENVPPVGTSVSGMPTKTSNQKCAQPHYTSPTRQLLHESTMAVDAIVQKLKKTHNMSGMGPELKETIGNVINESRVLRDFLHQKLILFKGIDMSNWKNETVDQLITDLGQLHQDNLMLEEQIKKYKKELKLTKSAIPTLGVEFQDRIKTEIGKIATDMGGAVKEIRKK

[1] = target: T2, SPD-5::TagRFP (C. elegans), P91349; assay: as above; settings: remark: other sources report otherwise
T2 chain: T1 sequence (looked up)

B1: EB1-GFP (natural protein, UniProt Q15691 1-268, looked up)
chain: MAVNVYSTSVTSDNLSRHDMLAWINESLQLNLTKIEQLCSGAAYCQFMDMLFPGSIALKKVKFQAKLEHEYIQNFKILQAGFKRMGVDKIIPVDKLVKGKFQDNFEFVQWFKKFFDANYDGKDYDPVAARQGQETAVAPSLVAPALNKPKKPLTSSSAAPQRPISTQRTAAAPKAGPGVVRKNPGVGNGDDEAAELMQQVNVLKLTVEDLEKERDFYFGKLRNIELICQENEGENDPVLQRIVDILYATDEGFVIPDEGGPQEEQEEY
partition coefficient (droplet vs. bulk) (SPD-5::TagRFP): 3.2

B2: PLK-1::GFP, P34331 1-648 (enzyme)
chain: MNRLPNIAKPPQKSNQRKEKAPPEVPALIADKDRGTYYEKGRFLGKGGFAHCYELTNRATREVVAGKVVPKSMLVKQYQRDKMTQEVQIHRELGHINIVKLFNFFEDNLNVYITLELCARRSLMELHKRRKAVTEPEARYFTHQIVDGVLYLHDLNIIHRDMKLGNLFLNDDLVVKIGDFGLATTVNGDERKKTLCGTPNYIAPEVLNKAGHSFEVDIWAVGCILYILLFGQPPFESKSLEETYSRIRHNNYTIPSIATQPAASLIRKMLDPEPTRRPTAKQVQRDGFFKSGFMPTRLPVSCLTMVPKFGGHETSMMEENVAPRGVDARSQRPLNGRAGLSALPQHIVSNNADRERAQQQAAEATFREPEDAYLSQLFHQVAVLLEQRIPGLEEEEAALDGYQSPECLPVFWISKWVDYSDKYGIGYQLCDNSVGVLFNDNSRIMLDQAGNELTYIEKSNKEHYFSMHSGEMPGLLNKKVTLLKYFRSYMNDHLVKAGEGSEQRAGDDLARLPTLRVWFRTKSAIVLHLSNGTVQINFFNDHVKMMMCPLMQAVTFIDQNKRMLTYKLNNLQRNGCPEKFLHRLKYAKTMIERLMSDANVVSQNPARQPDMPRSMAAARSASAGSRGPNQAASHLPQSASGSNIHPRR
partition coefficient (droplet vs. bulk) [1]: 19.8

B4: GFP::SPD-2 (natural protein, C. elegans, UniProt P91870 1-824, looked up)
chain: MEDDAPMNLCNEQFEEIEDSPIDDNDNESFYNADGDVELEEEEVHETPKNFKNGGRFKTNMTNPKVNDLTTIEEKNEDLRSAASSRSASRPASVMSDKSFSSQFEFQSGGENAIEEYTNQVFADENKADLLFPETSKFMNGASPPKDKHHSWEPSIHHYDKQPPPDIQTNSPVFGNLNHRKNKLIPQARAKPGANDNEIVERDNDENVPTTSDKSAFITSPMNSTNHDEKTSTPKRPTNRKIGQYQGPNFDLSSIYVGSPQHQNTSISTGQQMPTSSYSHAHSETMMTNQTINESMVRRVLNGNNKNQDLFAALEEARKRRAAQPSKPDFRINTTRTRVPIKPTSARHSGNVVSSTSNDNTTAASSKDLTTSRKAMETFRQNASMADATNSNTASMTSILSTISTARTDISRSSRNHGGGFSNTSVSTVIPANNGNVSLSHGRDGRDSVSSVRTMSRASSTSTVYAGSTFSGVSKPLRIHAKRVAFGCVAVGETLRVEVEVENISDRQCLVRASTDSTTPVYQILDNKLTMVDPKKSIKFQVSFSPSSVGRYQVIMSIEVPAQNFIHKIPMWGNGGIAKFVPTSPDLQQTINQSEYAMCTSCAKRISFKISNSAGTRDGFAMIKVFDSAMRQLPDGCVAFFPAPGFIVKKKSDKRVDIRIDSSYIDLHDENNFRTSSSLSTASTTSSFQRRILPGAKFFVHVVWGEETMRTRLRLLEVRTGQHQLIDGHDFTSFQFSDEEVLRAVPVGFPAIKPEDRDLFAASYRSFFINFFTSTTEFRAATSRKKKEICSNDDSTLLETTAFRNQTFVNDVTIVPNTRFSNRK
partition coefficient (droplet vs. bulk) (SPD-5::TagRFP): 67

Continued, values first:

partition coefficient (droplet vs. bulk) (SPD-5::TagRFP): 59
Molecule: TPXL-1::GFP (natural protein)

partition coefficient (droplet vs. bulk) (SPD-5::TagRFP): 101
B3: ZYG-9::GFP (natural protein, C. elegans, UniProt G5EEM5 1-1415, looked up)
chain: MSNWDYLDEVDILPKLPPNFDELRESKKWQERKEALEALLKVLTDNERLSTKASYAELIGHLQMVLAKDANINCQALAAKCIGKFATGLRAKFSSFAGPLLPVIFEKMKEKKPMLREPLVDCSNEVGRTMQSLETGQEDILAALAKPNPQIKQQTALFVARQLDLVVPAKQPKGFIKAVVPVFGKLTGDADQDVREASLQGLGAVQRIIGDKNVKNLLGDASSDEGKMKKIGEYAEKSTASFAEEQAKNAPPVAPTSSTPSASAASGDPSGGTATAVVSSGAPVAEADPWDFLDAFDVLSKMPDGFDTNIESKKWQERKEALEGLLQLITANPKLDPKANYGALVERLQKVLEKDANINVAALAANCITGIANGLRTKFQPFAVSVTPIIFEKFKEKKPTLRDPLVACIDAVVATTNLEAVGEIVLAALGKPNPSIKTQTDLFLQRCFMKLNSQTMPKKTLKTLIPSLIKHSGDSDSEVREASYAAMGAMMRAIGEKPSLQLLADIASDNLKMSKIKEFHQKALDEAGPAEIAEMVKSIHKADAPPAAAPPKKTAPPKKQPEDEEVVEEEDEPLKPPPGDKKKKVPVKENEENEPPVVAPKAELLLSDNEDKKQRIKEEKQLKLVKWNFQAPTDEHISQLQTLLGNQAKVSLMSQLFHKDFKQHLAALDSLVRLADTSPRSLLSNSDLLLKWCTLRFFETNPAALIKVLELCKVIVELIRDTETPMSQEEVSAFVPYLLLKTGEAKDNMRTSVRDIVNVLSDVVGPLKMTPMLLDALKSKNARQRSECLLVIEYYITNAGISPLKSLSVEKTVAPFVGDKDVNVRNAAINVLVACFKFEGDQMWKAAGRMADKDKSLVEERIKRTGVKPGSGVVTSPPTGGPKILVPQQQGSVVRRPASRSRTREPEPEEVQSDTFTIRQDTMPPKTSSRYALRDDVFSSAMGRLDGTQVITPPQPVNGWSNNTFQMKRTNSSSSISSIDTSDQIQRSINNISSSLADVAQDAMFQVTYVLNQPEQRHLVDRRADLVFRASAAQLDLVIEEFNAGRDVSGTMDACTQMLFILMGGVETEHGLEPLNASPDTVKAIISSVLRCIIQIGNTESGYGMARSLNRLAMRLIYRVELSNLLCGLILAMTESLQMNTGITELVSKLSSKWCDELEKRRAQLRASDIVDSFNAFYVCALTELKMDISDSHILIVDNYLERVILQQGDVVLDAARRLSRPHMHLTSMINKILQMMRERKIDPIMPGTLEARMPQEDEAVVVRSGVQVSIDNILRDTSMAVKHIEQLNILIASSDRSWNEYMEYLKNNPMGELIKELVGECSRKKRIDFNLSHVVKSSMAVFKAMAATGPVQEEGRITPTDINRMDTMIVGTPLSRGDATITRARGNMIRPKRTTLSRDQMANIRHTLDRVKNH
